# The supplement of paper PMC7125110
# ± gives the standard error. For some assays here: Variants at the floor of the assay were thinned out.
# B1: glmS ribozyme (parent)
# chain: AUAAAAGCGCCAGAACUACAGAAAUGUAGUUGACGAGGAGGAGGUUUAUCGAAUUUUCGGCGGAUGCCUCCAAA
# Columns and labels:
# Details in all cases: with glucosamine-6-phosphate
# [1] = variants of: B1; test: kcat; higher = faster cleavage; RNA array
# Method in brief: (§1)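 In situ transcription by E. coli RNA polymerase produced barcoded ribozyme variants on sequenced MiSeq chips, and a hybridised Cy3 probe tracked them at 37 °C. Glucosamine-6-phosphate was flowed in at 40 μM to 10 mM in HEPES/KCl/Mg(OAc)2 buffer. kcat and KM were taken from weighted Michaelis–Menten fits of kobs values from exponential decay fits.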
# [2] = variants of: B1; test: KM; higher = weaker cofactor use; RNA array
# Method in brief: as §1
# [3] = variants of: B1; test: self-cleavage kobs at 40 uM GlcN6P; higher = faster cleavage; RNA array
# Method in brief: as §1
# [4] = variants of: B1; test: self-cleavage kobs at 640 uM GlcN6P; higher = faster cleavage; RNA array
# Method in brief: as §1
# [5] = variants of: B1; test: self-cleavage kobs at 2500 uM GlcN6P; higher = faster cleavage; RNA array
# Method in brief: as §1
# [6] = variants of: B1; test: self-cleavage kobs at 10000 uM GlcN6P; higher = faster cleavage; RNA array
# Method in brief: as §1
# [7] = variants of: B1; test: self-cleavage kobs at 160 uM GlcN6P; higher = faster cleavage; RNA array
# Method in brief: as §1
Variant,kcat [1] [s⁻¹],KM [2] [µM],self-cleavage kobs at 40 uM GlcN6P [3] [s⁻¹],self-cleavage kobs at 640 uM GlcN6P [4] [s⁻¹],self-cleavage kobs at 2500 uM GlcN6P [5] [s⁻¹],self-cleavage kobs at 10000 uM GlcN6P [6] [s⁻¹],self-cleavage kobs at 160 uM GlcN6P [7] [s⁻¹]
A39U A53G C67G,0.00494 ± 0.00087,963 ± 280,0.000219 ± 3.9e-05,0.00186 ± 0.00023,0.00346 ± 0.00056,0.00612 ± 0.0016,–
A39G U46C,0.00815 ± 0.0014,946 ± 240,0.000292 ± 6.4e-05,0.00369 ± 0.00073,0.0069 ± 0.0015,0.00601 ± 0.0018,0.00135 ± 0.00039
G37U U47G,< 1e-05,–,< 1e-05,< 1e-05,–,–,–
G37U U47A,< 1e-05,–,–,< 1e-05,–,–,–
A39U C61U,< 1e-05,–,–,–,–,–,–
A39G U55A,0.0158 ± 0.0027,399 ± 110,0.00131 ± 0.00023,0.0115 ± 0.0025,0.0107 ± 0.0029,0.017 ± 0.0039,0.00551 ± 0.0011
A39U U54G,0.0173 ± 0.0074,–,0.000704 ± 0.00014,0.00453 ± 0.001,–,0.018 ± 0.0044,0.00169 ± 0.00043
G38U U57A,1.47e-05 ± 4.2e-06,–,–,< 1e-05,–,–,–
A39G C50U,0.000157 ± 2.6e-05,3430 ± 1200,–,–,6.91e-05 ± 1.4e-05,0.000115 ± 2.5e-05,–
A36G U69A,1.02e-05 ± 2.2e-06,–,–,–,–,–,–
A39U C50U,4.51e-05 ± 4.1e-06,1250 ± 570,–,–,3.23e-05 ± 9.4e-06,3.95e-05 ± 7.1e-06,–
A39U C50A,1.72e-05 ± 1.5e-06,–,–,–,–,–,< 1e-05
A36C C68A,1.33e-05 ± 2.1e-06,–,–,–,–,–,–
G37A G59A,< 1e-05,–,< 1e-05,–,–,–,–
G38A U69G,3.24e-05 ± 5.7e-06,–,–,–,3.53e-05 ± 1.3e-05,–,–
G38U C70A,1.31e-05 ± 3.3e-06,–,–,–,–,–,–
A36U C61A,< 1e-05,–,< 1e-05,–,–,< 1e-05,–
A39G U54C,0.0135 ± 0.004,759 ± 340,0.000807 ± 0.00031,0.00774 ± 0.0024,0.00946 ± 0.0035,–,0.00183 ± 0.0008
A39U U45C,0.00276 ± 0.0012,–,–,0.000268 ± 4.7e-05,0.000599 ± 0.00011,0.002 ± 0.00034,8.23e-05 ± 1.6e-05
C34G C71G,2.07e-05 ± 5.7e-06,–,–,–,–,–,–
A39C U45A A53U C70U,4.71e-05 ± 2.2e-06,835 ± 200,–,–,–,4.34e-05 ± 1.8e-05,–

Variant,kcat [1] [s⁻¹],KM [2] [µM],self-cleavage kobs at 40 uM GlcN6P [3] [s⁻¹],self-cleavage kobs at 640 uM GlcN6P [4] [s⁻¹],self-cleavage kobs at 2500 uM GlcN6P [5] [s⁻¹],self-cleavage kobs at 10000 uM GlcN6P [6] [s⁻¹],self-cleavage kobs at 160 uM GlcN6P [7] [s⁻¹]
G35C C70A,< 1e-05,–,< 1e-05,< 1e-05,–,–,–
G35C C70G,< 1e-05,–,–,–,< 1e-05,–,–
G37C C58A G66A C70A C71A,2.19e-05 ± 8.6e-06,–,–,–,–,–,–
G37A U45G C70G,1.07e-05 ± 4e-06,–,–,–,–,–,–
A36C C70U,< 1e-05,–,< 1e-05,–,–,–,–
G40A A53C,0.00179 ± 0.0007,–,–,0.000386 ± 0.00011,0.000919 ± 0.0002,0.00217 ± 0.0008,0.000183 ± 5.8e-05
G38U A53C C70U,< 1e-05,–,–,–,< 1e-05,–,–
G40A A42U,7.24e-05 ± 1.6e-05,–,–,–,7.53e-05 ± 1.2e-05,5.75e-05 ± 1.2e-05,–
G40A A42C,2.78e-05 ± 3.3e-06,1680 ± 670,–,–,–,–,< 1e-05
C34U G51A,5.64e-05 ± 4.4e-06,2710 ± 750,–,–,–,4.45e-05 ± 8.4e-06,–
A39C U57A,2.13e-05 ± 6e-06,–,< 1e-05,–,2.6e-05 ± 1.3e-05,–,–
G35U G43U,< 1e-05,–,–,< 1e-05,< 1e-05,–,–
C34U G60A,< 1e-05,–,–,< 1e-05,–,< 1e-05,–
G37A G41U,0.000119 ± 2.1e-05,–,–,4.8e-05 ± 1.3e-05,0.000126 ± 1.7e-05,0.0001 ± 1.2e-05,–
A39U U69A,0.000214 ± 3.6e-05,2430 ± 770,–,5.02e-05 ± 1.2e-05,0.000105 ± 1.3e-05,0.000197 ± 5.6e-05,–
G37A C50A,1.38e-05 ± 4.6e-06,–,–,–,–,–,–
G37A G44U A53U,9.52e-05 ± 3e-05,–,–,–,6.43e-05 ± 1.9e-05,7.31e-05 ± 2.3e-05,–
A39C U65C,0.000473 ± 8.7e-05,2250 ± 770,–,0.000107 ± 2e-05,0.000311 ± 7.1e-05,0.000367 ± 6.1e-05,–
A39C U65G,0.00143 ± 8.9e-05,3200 ± 380,–,0.000243 ± 3.9e-05,0.000558 ± 9.7e-05,0.0011 ± 9.8e-05,7.31e-05 ± 2e-05
A39U C70A,0.000394 ± 9.4e-05,558 ± 250,5.15e-05 ± 9.3e-06,0.000187 ± 2.3e-05,0.000403 ± 6.9e-05,0.000382 ± 5.4e-05,7.96e-05 ± 1.2e-05
A39U C70G,0.000797 ± 0.00021,1500 ± 720,4.48e-05 ± 9.1e-06,0.000201 ± 3.6e-05,0.000522 ± 8.8e-05,0.000713 ± 0.0001,6.66e-05 ± 2e-05
